Reference: the supplement of paper PMC10065799, “High-throughput profiling of sequence recognition by tyrosine kinases and SH2 domains using bacterial peptide display” (eLife, 2023)

Legend:
[1] = tested on: AncSZ; assay: phosphorylation enrichment, bacterial display (enrichment ratio); higher = better substrate or ligand; peptides without Tyr show the background
[2] = target: EPHB1 (UniProt P54762); assay: as above
[3] = target: EPHB2 (UniProt P29323); assay: as above
[4] = target: FGFR1 (UniProt P11362); assay: as above
[5] = target: FGFR3 (UniProt P22607); assay: as above
[6] = tested on: Fer (mouse); assay: as above
[7] = target: Fes (UniProt P07332); assay: as above
[8] = target: Fyn (UniProt P06241); assay: as above
[9] = target: Hck (UniProt P08631); assay: as above
[10] = target: Jak2 (UniProt O60674); assay: as above
[11] = target: MERTK (UniProt Q12866); assay: as above
[12] = tested on: c-Abl (mouse); assay: as above
[13] = tested on: c-Src; assay: as above
[14] = target: Grb2 SH2 (UniProt P62993); assay: SH2 binding enrichment of the phosphorylated peptide, bacterial display (enrichment ratio); higher = better substrate or ligand; peptides without Tyr show the background
[15] = target: SHP2-C SH2; assay: as above
[16] = target: c-Src SH2; assay: as above
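For SH2 binding enrichment of the phosphorylated peptide, bacterial display in this document: peptide library displayed on the E. coli surface as eCPX fusions, selected cells deep-sequenced, score is each peptide's frequency after selection divided by its frequency in the input.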
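For phosphorylation enrichment, bacterial display in this document: 11-residue human phosphosite peptides and single-mutation variants displayed on the E. coli surface, counted by deep sequencing, each peptide's frequency after selection divided by its frequency in the unselected input library; frequency after pTyr selection over input frequency; kinase dosed for 20-30% of maximal phosphorylation in three min.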

Sequence of Hck (P08631 whole entry, looked up): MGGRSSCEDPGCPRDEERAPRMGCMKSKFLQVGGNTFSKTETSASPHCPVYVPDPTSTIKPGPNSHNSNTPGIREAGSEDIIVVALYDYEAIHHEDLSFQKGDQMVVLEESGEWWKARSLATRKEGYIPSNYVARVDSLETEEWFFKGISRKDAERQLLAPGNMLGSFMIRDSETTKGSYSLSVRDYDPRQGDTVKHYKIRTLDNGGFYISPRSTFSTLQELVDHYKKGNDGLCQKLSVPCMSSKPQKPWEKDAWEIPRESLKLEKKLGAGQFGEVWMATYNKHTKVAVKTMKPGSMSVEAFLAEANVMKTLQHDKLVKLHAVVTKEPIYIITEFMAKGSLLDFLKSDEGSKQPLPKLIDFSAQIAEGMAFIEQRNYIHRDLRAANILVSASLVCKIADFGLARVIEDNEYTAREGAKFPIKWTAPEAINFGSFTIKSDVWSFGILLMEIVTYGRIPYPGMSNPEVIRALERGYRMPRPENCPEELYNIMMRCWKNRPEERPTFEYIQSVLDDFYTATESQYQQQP
Sequence of MERTK (Q12866 whole entry, looked up): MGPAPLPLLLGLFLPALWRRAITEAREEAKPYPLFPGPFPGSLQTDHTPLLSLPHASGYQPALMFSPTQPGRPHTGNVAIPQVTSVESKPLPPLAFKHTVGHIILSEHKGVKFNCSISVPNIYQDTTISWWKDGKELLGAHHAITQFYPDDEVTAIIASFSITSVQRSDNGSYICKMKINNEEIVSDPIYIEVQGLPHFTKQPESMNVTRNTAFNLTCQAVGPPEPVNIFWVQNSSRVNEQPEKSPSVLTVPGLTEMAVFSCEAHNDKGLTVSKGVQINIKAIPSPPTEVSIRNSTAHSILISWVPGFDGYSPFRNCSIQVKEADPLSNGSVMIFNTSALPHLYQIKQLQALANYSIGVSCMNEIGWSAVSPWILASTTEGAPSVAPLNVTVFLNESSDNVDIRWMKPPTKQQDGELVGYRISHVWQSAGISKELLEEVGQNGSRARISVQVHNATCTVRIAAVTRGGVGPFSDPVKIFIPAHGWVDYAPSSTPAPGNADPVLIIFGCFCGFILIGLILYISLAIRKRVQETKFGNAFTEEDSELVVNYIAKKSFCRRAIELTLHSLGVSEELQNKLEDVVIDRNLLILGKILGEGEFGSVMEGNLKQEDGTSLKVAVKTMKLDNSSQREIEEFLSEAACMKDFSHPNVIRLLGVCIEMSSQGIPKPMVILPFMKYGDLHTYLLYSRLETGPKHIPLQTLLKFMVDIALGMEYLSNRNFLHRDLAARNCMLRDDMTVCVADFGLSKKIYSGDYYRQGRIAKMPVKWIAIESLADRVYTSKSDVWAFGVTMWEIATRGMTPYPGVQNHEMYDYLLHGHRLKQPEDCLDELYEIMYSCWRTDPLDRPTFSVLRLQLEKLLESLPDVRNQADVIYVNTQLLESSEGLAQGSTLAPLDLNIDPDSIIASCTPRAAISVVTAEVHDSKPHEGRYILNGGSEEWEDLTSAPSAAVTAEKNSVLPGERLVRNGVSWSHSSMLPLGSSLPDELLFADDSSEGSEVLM
Sequence of FGFR3 (P22607 whole entry, looked up): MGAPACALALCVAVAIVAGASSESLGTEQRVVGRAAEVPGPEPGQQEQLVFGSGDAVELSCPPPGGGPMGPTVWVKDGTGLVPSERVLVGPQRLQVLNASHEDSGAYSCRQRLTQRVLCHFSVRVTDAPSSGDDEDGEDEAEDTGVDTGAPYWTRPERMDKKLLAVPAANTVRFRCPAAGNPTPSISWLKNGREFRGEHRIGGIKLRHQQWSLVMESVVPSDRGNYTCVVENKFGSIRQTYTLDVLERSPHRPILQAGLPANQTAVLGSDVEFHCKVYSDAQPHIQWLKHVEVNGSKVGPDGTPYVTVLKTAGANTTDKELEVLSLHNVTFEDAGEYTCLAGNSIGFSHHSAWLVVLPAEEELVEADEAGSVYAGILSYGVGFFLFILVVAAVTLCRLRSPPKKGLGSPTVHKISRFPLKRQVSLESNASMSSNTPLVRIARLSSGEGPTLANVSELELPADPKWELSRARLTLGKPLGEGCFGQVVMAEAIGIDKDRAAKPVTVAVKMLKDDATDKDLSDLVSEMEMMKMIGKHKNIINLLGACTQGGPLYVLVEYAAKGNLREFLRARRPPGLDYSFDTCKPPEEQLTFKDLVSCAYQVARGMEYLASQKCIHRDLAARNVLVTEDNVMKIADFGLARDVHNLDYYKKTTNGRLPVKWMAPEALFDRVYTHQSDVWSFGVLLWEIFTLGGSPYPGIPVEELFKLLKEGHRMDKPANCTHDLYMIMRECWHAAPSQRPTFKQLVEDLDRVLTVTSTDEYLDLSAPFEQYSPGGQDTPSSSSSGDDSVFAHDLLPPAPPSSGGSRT
Sequence of Jak2 (O60674 whole entry, looked up): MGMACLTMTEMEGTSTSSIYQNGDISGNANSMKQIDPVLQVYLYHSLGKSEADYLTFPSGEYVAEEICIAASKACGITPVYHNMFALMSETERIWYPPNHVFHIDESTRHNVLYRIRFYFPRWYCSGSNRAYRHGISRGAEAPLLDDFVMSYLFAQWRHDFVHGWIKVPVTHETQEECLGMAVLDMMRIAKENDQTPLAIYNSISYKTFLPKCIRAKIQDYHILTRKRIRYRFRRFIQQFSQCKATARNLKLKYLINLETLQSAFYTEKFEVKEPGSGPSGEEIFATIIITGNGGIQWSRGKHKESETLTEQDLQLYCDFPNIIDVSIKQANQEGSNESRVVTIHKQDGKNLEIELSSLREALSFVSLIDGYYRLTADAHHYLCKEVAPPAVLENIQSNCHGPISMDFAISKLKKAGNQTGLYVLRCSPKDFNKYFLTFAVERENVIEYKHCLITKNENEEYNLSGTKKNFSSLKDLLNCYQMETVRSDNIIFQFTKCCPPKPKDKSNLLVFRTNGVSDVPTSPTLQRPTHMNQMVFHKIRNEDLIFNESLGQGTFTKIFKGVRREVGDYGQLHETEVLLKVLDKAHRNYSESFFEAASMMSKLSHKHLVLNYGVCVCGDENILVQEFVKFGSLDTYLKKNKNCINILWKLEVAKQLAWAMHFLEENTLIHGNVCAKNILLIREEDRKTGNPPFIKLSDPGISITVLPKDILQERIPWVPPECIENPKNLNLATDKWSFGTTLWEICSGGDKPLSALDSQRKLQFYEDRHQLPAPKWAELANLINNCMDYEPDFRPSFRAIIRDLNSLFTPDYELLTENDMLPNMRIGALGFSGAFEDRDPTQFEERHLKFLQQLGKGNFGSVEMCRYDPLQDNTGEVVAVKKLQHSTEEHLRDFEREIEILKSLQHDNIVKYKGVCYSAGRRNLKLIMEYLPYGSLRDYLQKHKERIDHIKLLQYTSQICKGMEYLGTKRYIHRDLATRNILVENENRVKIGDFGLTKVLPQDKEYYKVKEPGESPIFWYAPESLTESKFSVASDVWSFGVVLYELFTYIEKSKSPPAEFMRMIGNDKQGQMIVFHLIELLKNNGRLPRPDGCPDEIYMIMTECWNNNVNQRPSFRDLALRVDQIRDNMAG
Sequence of Fes (P07332 whole entry, looked up): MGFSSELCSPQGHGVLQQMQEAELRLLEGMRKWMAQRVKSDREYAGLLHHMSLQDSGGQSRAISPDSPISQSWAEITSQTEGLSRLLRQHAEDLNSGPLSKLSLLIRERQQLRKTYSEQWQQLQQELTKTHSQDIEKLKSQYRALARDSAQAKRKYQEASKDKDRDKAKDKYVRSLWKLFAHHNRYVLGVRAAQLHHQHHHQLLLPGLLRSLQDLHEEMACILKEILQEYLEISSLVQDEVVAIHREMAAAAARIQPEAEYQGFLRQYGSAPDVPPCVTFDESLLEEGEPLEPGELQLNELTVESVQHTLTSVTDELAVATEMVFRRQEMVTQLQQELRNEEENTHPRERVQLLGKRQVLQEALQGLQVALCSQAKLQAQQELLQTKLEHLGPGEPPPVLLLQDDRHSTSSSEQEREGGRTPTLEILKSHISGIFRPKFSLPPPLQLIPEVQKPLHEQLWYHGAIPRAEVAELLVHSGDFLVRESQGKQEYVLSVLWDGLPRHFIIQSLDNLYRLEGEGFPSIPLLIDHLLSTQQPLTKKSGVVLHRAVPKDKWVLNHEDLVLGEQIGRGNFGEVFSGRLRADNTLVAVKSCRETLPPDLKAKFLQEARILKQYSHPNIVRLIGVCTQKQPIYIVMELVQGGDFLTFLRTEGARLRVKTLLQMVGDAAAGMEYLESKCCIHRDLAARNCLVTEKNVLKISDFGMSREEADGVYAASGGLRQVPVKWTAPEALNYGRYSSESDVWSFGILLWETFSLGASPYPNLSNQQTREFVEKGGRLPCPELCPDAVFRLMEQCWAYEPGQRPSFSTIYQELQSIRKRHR
Sequence of Fyn (P06241 whole entry, looked up): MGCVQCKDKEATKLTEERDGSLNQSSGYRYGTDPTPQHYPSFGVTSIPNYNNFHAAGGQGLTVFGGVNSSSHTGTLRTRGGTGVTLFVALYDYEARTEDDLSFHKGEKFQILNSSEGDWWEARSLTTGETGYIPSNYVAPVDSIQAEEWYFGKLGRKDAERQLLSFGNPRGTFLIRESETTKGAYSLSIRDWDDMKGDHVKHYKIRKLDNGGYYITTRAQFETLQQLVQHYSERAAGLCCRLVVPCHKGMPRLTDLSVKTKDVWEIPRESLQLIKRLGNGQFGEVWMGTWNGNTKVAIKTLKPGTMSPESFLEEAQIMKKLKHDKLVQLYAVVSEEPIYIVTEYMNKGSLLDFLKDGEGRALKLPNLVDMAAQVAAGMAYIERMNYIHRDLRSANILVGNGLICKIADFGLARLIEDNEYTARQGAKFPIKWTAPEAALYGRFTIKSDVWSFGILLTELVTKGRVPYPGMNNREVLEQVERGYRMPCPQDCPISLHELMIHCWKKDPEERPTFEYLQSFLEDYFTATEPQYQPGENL
Sequence of Grb2 SH2 (P62993 whole entry, looked up): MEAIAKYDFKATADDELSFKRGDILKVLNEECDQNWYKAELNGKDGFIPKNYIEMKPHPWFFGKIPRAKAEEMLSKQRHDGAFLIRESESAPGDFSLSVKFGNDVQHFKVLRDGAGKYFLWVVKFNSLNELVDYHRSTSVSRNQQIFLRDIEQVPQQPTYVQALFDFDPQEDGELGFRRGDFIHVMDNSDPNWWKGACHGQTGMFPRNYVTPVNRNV

| Sequence | phosphorylation enrichment [1] | phosphorylation enrichment [2] | phosphorylation enrichment [3] | phosphorylation enrichment [4] | phosphorylation enrichment [5] | phosphorylation enrichment [6] | phosphorylation enrichment [7] | phosphorylation enrichment [8] | phosphorylation enrichment [9] | phosphorylation enrichment [10] | phosphorylation enrichment [11] | phosphorylation enrichment [12] | phosphorylation enrichment [13] | SH2 binding enrichment [14] | SH2 binding enrichment [15] | SH2 binding enrichment [16] |
| --- | --- | --- | --- | --- | --- | --- | --- | --- | --- | --- | --- | --- | --- | --- | --- | --- |
| VDDQIYFFRKP [PBRM1_Y1289_E1287Q_YF] | 2.49 | 0.961 | 0.785 | 3.43 | 3.47 | 0.728 | 1.55 | 6.38 | 5.8 | 1.61 | 1.42 | 3.29 | 4.67 | 0.778 | 0.669 | 0.42 |
| ELPEKYSQNIF [PKP2_Y626_YF] | 0.989 | 0.528 | 0.492 | 0.579 | 0.659 | 0.423 | 1.05 | 0.413 | 0.507 | 1.09 | 0.538 | 0.605 | 0.539 | 0.864 | 0.711 | 0.614 |
| TTPGPHRSIFF [MPG_Y71_Y71H_YF] | 0.502 | 0.41 | 0.386 | 0.353 | 0.41 | 0.328 | 0.514 | 0.398 | 0.355 | 0.449 | 0.376 | 0.542 | 0.303 | 0.895 | 1 | 0.681 |
| KSEKVYTRHGV [FLOT1_Y56] | 0.502 | 0.354 | 0.339 | 0.439 | 0.341 | 0.417 | 0.527 | 0.254 | 0.346 | 0.444 | 0.427 | 0.401 | 0.34 | 0.866 | 0.824 | 0.579 |
| RALCHYYKLNI [ETV6_Y401_R399C] | 1.88 | 1.09 | 1.16 | 9.12 | 5.19 | 1.29 | 1.99 | 0.947 | 1.59 | 6.35 | 3.95 | 2.78 | 2.63 | 1.74 | 1.23 | 1.45 |
| SVTCTYSPALS [TP53_Y126_N131S] | 2.15 | 0.673 | 0.645 | 0.396 | 0.697 | 0.508 | 1.63 | 0.424 | 0.553 | 1.42 | 0.42 | 1.42 | 0.719 | 0.844 | 0.44 | 0.468 |
| MSDVPYVMNRG [ACAT1_Y161_N158D] | 0.669 | 0.4 | 0.452 | 0.403 | 0.501 | 0.42 | 0.68 | 0.316 | 0.358 | 0.652 | 0.348 | 0.549 | 0.439 | 1.11 | 0.617 | 0.452 |
| ICRWVYPLTPE [EIF2B5_Y319_R315C] | 1.29 | 0.5 | 0.542 | 0.516 | 0.733 | 0.405 | 1.36 | 0.528 | 0.585 | 1.14 | 0.505 | 0.739 | 0.578 | 0.883 | 0.795 | 0.538 |
| EVLKNYNQQKD [GOLGA4_Y1551] | 0.949 | 0.504 | 0.505 | 0.565 | 0.702 | 0.552 | 1.07 | 0.443 | 0.452 | 0.969 | 0.439 | 0.717 | 0.388 | 0.608 | 0.669 | 0.32 |
| GNFSGYDDAWD [POLR1C_Y36_YF] | 1.14 | 0.574 | 0.568 | 0.428 | 0.731 | 0.479 | 1.43 | 0.454 | 0.461 | 1.28 | 0.48 | 1.03 | 0.584 | 0.832 | 0.592 | 4.46 |
| LLNPSYNLPLD [TOM1L1_Y109_R108S] | 1.22 | 1.26 | 0.711 | 0.595 | 1.14 | 0.808 | 1.45 | 0.979 | 1.07 | 0.908 | 0.854 | 0.855 | 0.523 | 0.685 | 0.618 | 0.833 |
| CITIHYNFMCN [TP53_Y234_T230I_YF] | 0.946 | 0.59 | 0.711 | 0.582 | 0.886 | 0.574 | 1.44 | 0.46 | 0.489 | 1.31 | 0.456 | 0.661 | 0.607 | 2.19 | 1.43 | 1.52 |
| PFIDSYEKDVA [PGM1_Y521_L516P_YF] | 1.07 | 0.574 | 0.708 | 0.592 | 0.636 | 0.35 | 1.04 | 0.656 | 0.606 | 0.594 | 0.378 | 0.51 | 0.375 | 0.682 | 0.612 | 0.595 |
| QRALLYEDALF [UNC13D_Y56_YF] | 1.21 | 10.4 | 8.85 | 0.68 | 0.896 | 16.1 | 2.16 | 1.54 | 1.45 | 0.867 | 4.86 | 0.878 | 1.5 | 0.828 | 0.573 | 0.593 |
| VVQGLYKSMPK [KBTBD2_Y250] | 0.53 | 0.386 | 0.477 | 0.384 | 0.537 | 0.328 | 0.611 | 0.34 | 0.438 | 0.516 | 0.532 | 0.492 | 0.403 | 0.752 | 0.79 | 0.429 |
| HNELFYEEAEH [VANGL1_Y345_YF] | 1.89 | 0.819 | 0.932 | 0.809 | 0.964 | 4.23 | 1.35 | 0.942 | 0.974 | 0.981 | 0.525 | 0.727 | 0.484 | 0.599 | 0.733 | 0.645 |
| LGMSQYFRLFN [CPT2_Y217_D213G] | 0.966 | 0.601 | 0.839 | 0.704 | 0.766 | 0.499 | 1.26 | 0.364 | 0.64 | 3.24 | 0.58 | 0.581 | 0.381 | 1.06 | 3.46 | 0.805 |

| Sequence | phosphorylation enrichment [1] | phosphorylation enrichment [2] | phosphorylation enrichment [3] | phosphorylation enrichment [4] | phosphorylation enrichment [5] | phosphorylation enrichment [6] | phosphorylation enrichment [7] | phosphorylation enrichment [8] | phosphorylation enrichment [9] | phosphorylation enrichment [10] | phosphorylation enrichment [11] | phosphorylation enrichment [12] | phosphorylation enrichment [13] | SH2 binding enrichment [14] | SH2 binding enrichment [15] | SH2 binding enrichment [16] |
| --- | --- | --- | --- | --- | --- | --- | --- | --- | --- | --- | --- | --- | --- | --- | --- | --- |
| QHVPDYRQNGY [PCDHGA1_Y890_V894G] | 0.788 | 0.484 | 0.548 | 0.52 | 0.578 | 0.496 | 0.887 | 0.523 | 0.524 | 0.719 | 0.493 | 0.621 | 0.514 | 0.889 | 0.678 | 0.486 |
| DLHGIYQKLVI | 0.886 | 4.32 | 3.01 | 1.65 | 1.31 | 11.4 | 1.04 | 8.38 | 7.64 | 0.82 | 5.38 | 3.83 | 5.84 | 0.952 | 0.822 | 0.597 |
| LAVNPYGPPDL | 1.36 | 0.846 | 0.408 | 0.798 | 0.911 | 0.77 | 1.23 | 0.708 | 0.682 | 1.03 | 0.517 | 1.32 | 0.611 | 0.89 | 0.873 | 0.515 |
| IVRSLYEDVED [VHL_Y185_L188V] | 1.3 | 0.611 | 0.701 | 0.502 | 0.674 | 1.69 | 1.26 | 0.488 | 0.526 | 1.21 | 0.458 | 0.834 | 0.51 | 0.937 | 0.63 | 11.8 |
| LYDPDYMKVIL [CYP4A22_Y104] | 1.96 | 2.9 | 2.61 | 1.54 | 1.07 | 1.48 | 1.54 | 0.72 | 0.787 | 2.27 | 1.51 | 1.36 | 0.988 | 0.693 | 0.73 | 0.504 |
| LAEMNYVHQDL [EPHB1_Y740_R743Q] | 1.12 | 1.37 | 0.72 | 0.581 | 1.01 | 0.716 | 1.22 | 0.674 | 0.51 | 0.744 | 0.46 | 0.533 | 0.411 | 0.983 | 0.923 | 0.445 |
| RFLERDIYNRE [HLA-DPB1_Y57_Y57D] | 2.71 | 1.74 | 1.48 | 1.18 | 2.92 | 1.85 | 2.16 | 5.19 | 10.7 | 0.764 | 1.26 | 0.787 | 1.8 | 1.08 | 0.882 | 0.877 |
| DAVAVYHGKIS [SH2D1A_Y7] | 0.593 | 0.395 | 0.442 | 0.388 | 0.492 | 0.379 | 0.744 | 0.442 | 0.533 | 0.603 | 0.369 | 0.51 | 0.348 | 0.717 | 0.82 | 0.406 |
| ALHHPYGCDVE [ABL2_Y80_R78H] | 0.803 | 0.606 | 0.621 | 0.441 | 0.726 | 0.447 | 0.998 | 0.44 | 0.541 | 0.708 | 0.44 | 0.681 | 0.669 | 1.03 | 0.771 | 0.773 |
| ITRDIYETDFF [INSR_Y1185_M1180I_YF] | 1.44 | 0.803 | 0.711 | 0.539 | 0.738 | 0.983 | 1.25 | 1.46 | 1.12 | 1.16 | 1.26 | 0.698 | 1.75 | 0.83 | 0.485 | 1.12 |
| PLFSKYWPNHI [GREB1L_Y1560_R1558S_YF] | 2.32 | 1 | 0.925 | 0.823 | 0.724 | 0.907 | 1.33 | 0.805 | 0.801 | 0.933 | 1.13 | 1.47 | 1.38 | 0.917 | 0.736 | 0.459 |
| ELTSKYRGGGG [HBA1_Y141_V136E] | 0.515 | 0.412 | 0.385 | 0.333 | 0.411 | 0.313 | 0.573 | 0.353 | 0.422 | 0.678 | 0.503 | 0.471 | 0.434 | 0.939 | 0.725 | 0.469 |
| LENSTYQYIRV [CRB1_Y760] | 2.11 | 12.1 | 5.02 | 13 | 7.65 | 25.5 | 1.86 | 5.14 | 10.9 | 1.11 | 7.03 | 0.91 | 3.07 | 1.55 | 8.46 | 1.72 |
| GFDHSYFFIAT [ESD_Y262_YF] | 1.52 | 0.63 | 0.603 | 7.11 | 5.72 | 0.589 | 1.28 | 0.525 | 0.626 | 5.69 | 0.67 | 1.15 | 0.558 | 0.813 | 0.697 | 0.621 |
| LSDGPYSSPFE [EPOR_Y485_N487S_YF] | 1.37 | 0.631 | 0.53 | 0.781 | 0.715 | 0.465 | 0.84 | 0.786 | 0.684 | 0.765 | 0.527 | 0.468 | 0.698 | 0.507 | 0.473 | 1.02 |
| SADIAYNYRHG [PAH_Y166_F161S] | 0.488 | 0.333 | 0.378 | 0.362 | 0.391 | 0.469 | 0.498 | 0.345 | 0.344 | 0.435 | 0.329 | 0.508 | 0.388 | 0.817 | 0.699 | 0.445 |
